T1: mouse FcγRII (mouse, UniProt P08101 30-210)
T1 construct: Extracellular domain with C-terminal His tag; also called mFcγRII; mFcgRII
T1 sequence: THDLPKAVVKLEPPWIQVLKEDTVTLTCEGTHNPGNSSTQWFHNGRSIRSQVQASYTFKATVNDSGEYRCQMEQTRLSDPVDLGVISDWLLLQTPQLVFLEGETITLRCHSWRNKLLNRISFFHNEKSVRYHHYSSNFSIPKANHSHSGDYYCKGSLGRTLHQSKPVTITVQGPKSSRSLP

T2: mouse FcγRIII (mouse, UniProt P08508 31-215)
T2 construct: Extracellular domain with C-terminal His tag; also called mFcγRIII; mFcgRIII
T2 chain: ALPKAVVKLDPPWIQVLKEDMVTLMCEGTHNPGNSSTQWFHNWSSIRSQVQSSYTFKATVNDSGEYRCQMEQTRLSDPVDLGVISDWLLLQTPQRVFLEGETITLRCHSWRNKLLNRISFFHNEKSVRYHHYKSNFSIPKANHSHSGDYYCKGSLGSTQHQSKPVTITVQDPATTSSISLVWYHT


How the values were obtained:
[1] = molecular target: T1, mouse FcγRII; experiment: SPR (Biacore T200); KD of H237-MB630/MRAL-k0 / KD of variant
[2] = molecular target: T2, mouse FcγRIII; experiment: as above
[3] = molecular target: T1, mouse FcγRII; experiment: SPR (Biacore T200); KD of H237-mIgG1/MRAL-k0 / KD of variant
[4] = molecular target: T2, mouse FcγRIII; experiment: as above

Relative mFcγRII-binding activity (MB630 = 1) [1]	Relative mFcγRIII-binding activity (MB630 = 1) [2]	relative mFcγRII-binding activity (mIgG1 = 1) [3]	relative mFcγRIII-binding activity (mIgG1 = 1) [4]	Binder
2.13 fold	2.45 fold	28 fold	0.56 fold	MB824 (antibody, mouse IgG1, kappa, CH name; VH H237 + CH, L chain MRAL-k0; copies: 2 + 2) heavy: QVQLQESGPGLVKPSETLSLTCAVSGHSISHDHAWSWVRQPPGEGLEWIGFISYSGITNYNPSLQGRVTISRDNSKNTLYLQMNSLRAEDTAVYYCARSLARTTAMDYWGEGTLVTVSSAKTTPPSVYPLAPGSAAQTNSMVTLGCLVKGYFPEPVTVTWNSGSLSSGVHTFPAVLQSDLYTLSSSVTVPSSTWPSETVTCNVAHPASSTKVDKKIVPRDCGCKPCICEPNEVELVFIFPPKPKDVLTITLTPKVTCVVVDISKDDPEVQFSWFVDDVEVHTAQTQPREEQFNSTFRSVSELPIMHQDWLNGKEFKCRVNSDAFPAYIEKTISKTKGRPKAPQVYTIPPPKEQMAKDKVSLTCMITDFFPEDITVEWQWNGQPAENYKNTQPIMDTDGSYFVYSKLNVQKSNWEAGNTFTCSVLHEGLHNHHTEKSLSHSPGK light: not shown
2.16 fold	2.17 fold	28.4 fold	0.5 fold	MB825 (antibody, mouse IgG1, kappa, CH name; VH H237 + CH, L chain MRAL-k0; copies: 2 + 2) heavy: QVQLQESGPGLVKPSETLSLTCAVSGHSISHDHAWSWVRQPPGEGLEWIGFISYSGITNYNPSLQGRVTISRDNSKNTLYLQMNSLRAEDTAVYYCARSLARTTAMDYWGEGTLVTVSSAKTTPPSVYPLAPGSAAQTNSMVTLGCLVKGYFPEPVTVTWNSGSLSSGVHTFPAVLQSDLYTLSSSVTVPSSTWPSETVTCNVAHPASSTKVDKKIVPRDCGCKPCICEPNEVELVFIFPPKPKDVLTITLTPKVTCVVVDISKDDPEVQFSWFVDDVEVHTAQTQPREEQFNSTFRSVSELPIMHQDWLNGKEFKCRVNSDAFPAPIYKTISKTKGRPKAPQVYTIPPPKEQMAKDKVSLTCMITDFFPEDITVEWQWNGQPAENYKNTQPIMDTDGSYFVYSKLNVQKSNWEAGNTFTCSVLHEGLHNHHTEKSLSHSPGK light: not shown
2.16 fold	2.14 fold	28.4 fold	0.49 fold	MB828 (antibody, mouse IgG1, kappa, CH name; VH H237 + CH, L chain MRAL-k0; copies: 2 + 2) heavy: QVQLQESGPGLVKPSETLSLTCAVSGHSISHDHAWSWVRQPPGEGLEWIGFISYSGITNYNPSLQGRVTISRDNSKNTLYLQMNSLRAEDTAVYYCARSLARTTAMDYWGEGTLVTVSSAKTTPPSVYPLAPGSAAQTNSMVTLGCLVKGYFPEPVTVTWNSGSLSSGVHTFPAVLQSDLYTLSSSVTVPSSTWPSETVTCNVAHPASSTKVDKKIVPRDCGCKPCICEPNEVELVFIFPPKPKDVLTITLTPKVTCVVVDISKDDPEVQFSWFVDDVEVHTAQTQPREEQFNSTFRSVSELPIMHQDWLNGKEFKCRVNSAGFPAPIYKTISKTKGRPKAPQVYTIPPPKEQMAKDKVSLTCMITDFFPEDITVEWQWNGQPAENYKNTQPIMDTDGSYFVYSKLNVQKSNWEAGNTFTCSVLHEGLHNHHTEKSLSHSPGK light: not shown
1.41 fold	1.48 fold	18.5 fold	0.34 fold	MB826 (antibody, mouse IgG1, kappa, CH name; VH H237 + CH, L chain MRAL-k0; copies: 2 + 2) heavy: QVQLQESGPGLVKPSETLSLTCAVSGHSISHDHAWSWVRQPPGEGLEWIGFISYSGITNYNPSLQGRVTISRDNSKNTLYLQMNSLRAEDTAVYYCARSLARTTAMDYWGEGTLVTVSSAKTTPPSVYPLAPGSAAQTNSMVTLGCLVKGYFPEPVTVTWNSGSLSSGVHTFPAVLQSDLYTLSSSVTVPSSTWPSETVTCNVAHPASSTKVDKKIVPRDCGCKPCICEPNEVELVFIFPPKPKDVLTITLTPKVTCVVVDISKDDPEVQFSWFVDDVEVHTAQTQPREEQFNSTFRSVSELPIMHQDWLNGKEFKCRVNSAGFPAFIEKTISKTKGRPKAPQVYTIPPPKEQMAKDKVSLTCMITDFFPEDITVEWQWNGQPAENYKNTQPIMDTDGSYFVYSKLNVQKSNWEAGNTFTCSVLHEGLHNHHTEKSLSHSPGK light: not shown

Further lines, the binder ahead of its results:

Binder	Relative mFcγRII-binding activity (MB630 = 1) [1]	Relative mFcγRIII-binding activity (MB630 = 1) [2]	relative mFcγRII-binding activity (mIgG1 = 1) [3]	relative mFcγRIII-binding activity (mIgG1 = 1) [4]
MB827 (antibody, mouse IgG1, kappa, CH name; VH H237 + CH, L chain MRAL-k0; copies: 2 + 2) heavy: QVQLQESGPGLVKPSETLSLTCAVSGHSISHDHAWSWVRQPPGEGLEWIGFISYSGITNYNPSLQGRVTISRDNSKNTLYLQMNSLRAEDTAVYYCARSLARTTAMDYWGEGTLVTVSSAKTTPPSVYPLAPGSAAQTNSMVTLGCLVKGYFPEPVTVTWNSGSLSSGVHTFPAVLQSDLYTLSSSVTVPSSTWPSETVTCNVAHPASSTKVDKKIVPRDCGCKPCICEPNEVELVFIFPPKPKDVLTITLTPKVTCVVVDISKDDPEVQFSWFVDDVEVHTAQTQPREEQFNSTFRSVSELPIMHQDWLNGKEFKCRVNSAGFPAYIEKTISKTKGRPKAPQVYTIPPPKEQMAKDKVSLTCMITDFFPEDITVEWQWNGQPAENYKNTQPIMDTDGSYFVYSKLNVQKSNWEAGNTFTCSVLHEGLHNHHTEKSLSHSPGK light: not shown	1.63 fold	1.64 fold	21.5 fold	0.38 fold
MB830 (antibody, mouse IgG1, kappa, CH name; VH H237 + CH, L chain MRAL-k0; copies: 2 + 2) heavy: QVQLQESGPGLVKPSETLSLTCAVSGHSISHDHAWSWVRQPPGEGLEWIGFISYSGITNYNPSLQGRVTISRDNSKNTLYLQMNSLRAEDTAVYYCARSLARTTAMDYWGEGTLVTVSSAKTTPPSVYPLAPGSAAQTNSMVTLGCLVKGYFPEPVTVTWNSGSLSSGVHTFPAVLQSDLYTLSSSVTVPSSTWPSETVTCNVAHPASSTKVDKKIVPRDCGCKPCICEPNEVELVFIFPPKPKDVLTITLTPKVTCVVVDISKDDPEVQFSWFVDDVEVHTAQTQPREEQFNSTFRSVSELPIMHQDWLNGKEFKCRVNSAAFPAFIYKTISKTKGRPKAPQVYTIPPPKEQMAKDKVSLTCMITDFFPEDITVEWQWNGQPAENYKNTQPIMDTDGSYFVYSKLNVQKSNWEAGNTFTCSVLHEGLHNHHTEKSLSHSPGK light: not shown	0.37 fold	0.36 fold	4.8 fold	0.08 fold
MB829 (antibody, mouse IgG1, kappa, CH name; VH H237 + CH, L chain MRAL-k0; copies: 2 + 2) heavy: QVQLQESGPGLVKPSETLSLTCAVSGHSISHDHAWSWVRQPPGEGLEWIGFISYSGITNYNPSLQGRVTISRDNSKNTLYLQMNSLRAEDTAVYYCARSLARTTAMDYWGEGTLVTVSSAKTTPPSVYPLAPGSAAQTNSMVTLGCLVKGYFPEPVTVTWNSGSLSSGVHTFPAVLQSDLYTLSSSVTVPSSTWPSETVTCNVAHPASSTKVDKKIVPRDCGCKPCICEPNEVELVFIFPPKPKDVLTITLTPKVTCVVVDISKDDPEVQFSWFVDDVEVHTAQTQPREEQFNSTFRSVSELPIMHQDWLNGKEFKCRVNSAGFPAPIERTISKTKGRPKAPQVYTIPPPKEQMAKDKVSLTCMITDFFPEDITVEWQWNGQPAENYKNTQPIMDTDGSYFVYSKLNVQKSNWEAGNTFTCSVLHEGLHNHHTEKSLSHSPGK light: not shown	2.57 fold	2.75 fold	33.8 fold	0.63 fold
